Measured values reported in article PMC9741652, “CRL2^ZER1/ZYG11B recognizes small N-terminal residues for degradation” (Nature Communications, 2022).

B1: TFLHVGQDGLELPTS peptide (15-mer, position 1 Thr) (peptide)
peptide: TFLHVGQDGLELPTS
notes: numbers count on: the peptide; Spot on a cellulose membrane; also called Nt-Thr (SPOT array); source: synthetic peptide, synthesized on cellulose membrane (SPOT array)
B2: GFLHVGQDGLELPTS peptide (15-mer from the N-terminus of ZNF701) (peptide)
peptide: GFLHVGQDGLELPTS
notes: 15-mer derived from the N-terminus of ZNF701; Spot on a cellulose membrane; also called Nt-Gly (SPOT array); source: synthetic peptide, synthesized on cellulose membrane (SPOT array)
B3: AFLHVGQDGLELPTS peptide (15-mer, position 1 Ala) (peptide)
peptide: AFLHVGQDGLELPTS
notes: numbers count on: the peptide; Spot on a cellulose membrane; also called Nt-Ala (SPOT array); source: synthetic peptide, synthesized on cellulose membrane (SPOT array)
B4: SFLHVGQDGLELPTS peptide (15-mer, position 1 Ser) (peptide)
peptide: SFLHVGQDGLELPTS
notes: numbers count on: the peptide; Spot on a cellulose membrane; also called Nt-Ser (SPOT array); source: synthetic peptide, synthesized on cellulose membrane (SPOT array)

Tests used:
[1] = target: T1, GST-fused ZER1 (residues 469–766) (human, UniProt Q7Z7L7 469-766); test: peptide or protein array; peptide SPOT array on cellulose membrane; purified GST-tagged ZER1 (50 nM) or ZYG11B (230 nM) in 10% glycerol, 0.1 M KCl, 1 mM EDTA, 20 mM HEPES pH 7.5, 1 h at room temperature; detected with anti-GST by chemiluminescence; conditions: both partners purified
T1 construct: ZER1, human, residues 469-766; Vector pACYC-GST is Addgene Plasmid #62329; also called GST-tagged ZER1_(469–766); source: purified; cloned into pACYC-GST
T1 sequence (Q7Z7L7 469-766): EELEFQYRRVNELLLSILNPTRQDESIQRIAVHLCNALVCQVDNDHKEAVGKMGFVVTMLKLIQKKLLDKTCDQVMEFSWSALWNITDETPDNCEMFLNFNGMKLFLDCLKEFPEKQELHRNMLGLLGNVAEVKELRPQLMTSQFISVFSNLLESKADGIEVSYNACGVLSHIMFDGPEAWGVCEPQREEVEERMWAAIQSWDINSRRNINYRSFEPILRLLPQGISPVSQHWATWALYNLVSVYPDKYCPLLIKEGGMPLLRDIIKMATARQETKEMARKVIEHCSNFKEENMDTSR

[2] = target: T2, GST-fused ZYG11B (residues 490–744) (UniProt Q9C0D3 490-744); test: as above; conditions: both partners purified
T2 construct: ZYG11B, residues 490-744; Vector pACYC-GST is Addgene Plasmid #62329; also called GST-tagged ZYG11B_(490–744); source: purified; cloned into pACYC-GST
T2 sequence (Q9C0D3 490-744): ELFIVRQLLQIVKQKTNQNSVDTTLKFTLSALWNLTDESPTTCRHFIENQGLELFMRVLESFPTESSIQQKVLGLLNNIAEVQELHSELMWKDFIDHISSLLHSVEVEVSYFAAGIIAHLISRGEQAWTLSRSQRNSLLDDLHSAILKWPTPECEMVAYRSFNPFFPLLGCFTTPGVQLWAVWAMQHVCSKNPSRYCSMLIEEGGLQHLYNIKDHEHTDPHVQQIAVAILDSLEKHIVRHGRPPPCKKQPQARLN

Binder	binding result [1]	binding result [2]
B1	binds	
B2		binds
B3	binds	binds
B4	binds	binds
